In publication PMC9142731 (2022):

Molecular target: SARS-CoV nucleocapsid protein, recombinant (SARS-CoV, UniProt P59595 1-422)
Assay: SPR

Chain of SARS-CoV nucleocapsid protein, recombinant (P59595 whole entry): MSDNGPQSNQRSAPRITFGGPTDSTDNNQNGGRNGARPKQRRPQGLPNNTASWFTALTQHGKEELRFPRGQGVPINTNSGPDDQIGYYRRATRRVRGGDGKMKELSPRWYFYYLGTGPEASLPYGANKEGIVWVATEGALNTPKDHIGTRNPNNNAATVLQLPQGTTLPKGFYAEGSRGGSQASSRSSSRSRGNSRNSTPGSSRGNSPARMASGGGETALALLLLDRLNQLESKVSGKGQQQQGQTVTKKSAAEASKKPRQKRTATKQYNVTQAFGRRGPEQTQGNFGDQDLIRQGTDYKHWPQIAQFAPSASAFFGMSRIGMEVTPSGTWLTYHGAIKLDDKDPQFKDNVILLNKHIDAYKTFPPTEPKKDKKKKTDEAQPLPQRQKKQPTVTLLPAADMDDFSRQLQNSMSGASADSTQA

B1: P301-F7 (antibody, V domains shown)
VH: QLQLQESGPGLVKPSETLSLTCTVSGGSISSTSYYWGWIRQPPGKGLEWIGSIYYSGSTYYNPSLKSRVTISVDTSKNQFSLKLSSVTAADTAVYYCARFSLYCSSTSCYENWFDPWGQGTLVTVSS
VL: QSVLTQPPSVSAAPGQKVTISCSGSSSNIGNNYVSWYQQLPGTAPKLLIYDNNKRPSGIPDRFSGSKSGTSATLGITGLQTGDEADYYCGTWDSSLSAGQVVFGGGTKLTVL
B1 was tested, and the Kd was 33.4 nM.
